Results: paper PMC6388921, “An alkaline active feruloyl-CoA synthetase from soil metagenome as a potential key enzyme for lignin valorization strategies” (PLoS ONE, 2019)

Molecular target: the molecule itself
Assay: dynamic light scattering; FCS1 at 1 mg/mL in 20 mM Tris-HCl pH 7; hydrodynamic radius converted to mass assuming a spherical molecule

B1: feruloyl-CoA synthetase FCS1 (enzyme, UniProt A0A2P1BT06 1-707, looked up)
chain: MGERRFSNQQIDRLLRPKSVAVIGASDRKGALGATLLNNLVQYEFSGDIYPVNPKRDELLGLKVYHEVAELPEGIDCAVLAIPRPFVIDTVRQLAQRGCGAVVIYSAGFSEAGEEGMKDQLELAAIAAEYGMVIEGPNCLGCTNYVERVPLTFVETNMQTPPKGTRAVGIASQSGALAAVLATALHPRGLYVSSSVSTGNEAASGVEDYVEWLVDDEDTHVIAMYVESLRRPKAFIAAARRAHAAGKPIVMLHPGKSNKAQESAATHTGAMAGDYALMKTKLAREGVIFADTLEELADITEIALRCRALPGANMAVLGESGALRGLAFDIAEDIGLDLIHLDDDNSPALRAILPDFVPVSNPTDITALGLSEPEIYTKVLTALLEDERIGSVVASIIQSDPITSGIKFPHIIKVLDGGTFAKPLVFAGVDEGATVPKEYIDGLRKVGIPWFPSTERAYRAIARLADLSKRDLADNSGDPIVVPGLDAVSGVVPEYKAKELLRPLGIAFPPSQFAANAEAAAAAARAIGYPVVMKAQAAALGHKSDAGGVILNLKTDDEVRDAFARIYGNVEAYDRSIALDGVLIEKMGKMGTEMIVGAKNDPQWGPVVLAGFGGVTAEILKDVKLFTPEMDAAAVQRGLLELKQAPILKGYRGAPALDVAALAELIVQIGRVMAGNPSIREIDLNPVIIHPAGEGVAALDALMLVER
notes: feruloyl-CoA synthetase FCS1 from the metagenome of a lignin-degrading microbial consortium from sugarcane plantation soil; GenBank MG214406; codon-optimised, synthesised gene; predicted molecular mass 74.9 kDa; No tag cleavage is described
- stoichiometry N: 2
